Source: publication PMC10912226, “Filament formation drives catalysis by glutaminase enzymes important in cancer progression” (Nature Communications, 2024)

Assays:
[1] = biological target: the molecule itself; experiment: cryo-EM structure; apo-GLS2, 5 µM, no substrate or activator; single particle, C2 symmetry; step: subunits in the tetramer
[2] = biological target: the molecule itself; experiment: cryo-EM structure; GLS2 5 µM with 30 µM inhibitor 968 in 2% DMSO; 2D classification, dimer classes kept, 3.65 Å map, model not built
[3] = biological target: the molecule itself; experiment: negative stain electron microscopy; glutaminase 1 µM with glutamine 20 mM and inorganic phosphate (50-200 mM), RT, 30 s to 1 min after mixing (GAC Y466W with DMSO also 30 min); step: tetramers to filament

| Protein | stoichiometry N [1] | stoichiometry N [2] | stoichiometry N [3] |
| --- | --- | --- | --- |
| human liver-type glutaminase GLS2, wild type, without the mitochondrial localization sequence (residue 38-602) (enzyme, UniProt Q9UI32 38-602, looked up, Tetramer in the apo state (cryo-EM); tetramers stack into filaments with glutamine and Pi; also called LGA; apo-GLS2; source: E. coli BL21 (DE3), purified (Co2+ TALON resin, HiTrap Q anion exchange, Superdex 200 SEC)) HHLSEAAAQGRETPHSHQPQHQDHDSSESGMLSRLGDLLFYTIAEGQERIPIHKFTTALKATGLQTSDPRLRDCMSEMHRVVQESSSGGLLDRDLFRKCVSSNIVLLTQAFRKKFVIPDFEEFTGHVDRIFEDVKELTGGKVAAYIPQLAKSNPDLWGVSLCTVDGQRHSVGHTKIPFCLQSCVKPLTYAISISTLGTDYVHKFVGKEPSGLRYNKLSLNEEGIPHNPMVNAGAIVVSSLIKMDCNKAEKFDFVLQYLNKMAGNEYMGFSNATFQSEKETGDRNYAIGYYLKEKKCFPKGVDMMAALDLYFQLCSVEVTCESGSVMAATLANGGICPITGESVLSAEAVRNTLSLMHSCGMYDFSGQFAFHVGLPAKSAVSGAILLVVPNVMGMMCLSPPLDKLGNSHRGTSFCQKLVSLFNFHNYDNLRHCARKLDPRREGAEIRNKTVVNLLFAAYSGDVSALRRFALSAMDMEQKDYDSRTALHVAAAEGHIEVVKFLIEACKVNPFAKDRWGNIPLDDAVQFNHLEVVKLLQDYQDSYTLSETQAEAAAEALSKENLESMV | 4 | 2 | – |
| human GLS2 (N308A) mutant (enzyme, UniProt Q9UI32 38-602, looked up, liver-type glutaminase GLS2, human, residues 38-602, with N308A in the tetramer-tetramer (filament) interface; source: E. coli BL21 (DE3), purified (Co2+ TALON resin, HiTrap Q anion exchange, Superdex 200 SEC)) HHLSEAAAQGRETPHSHQPQHQDHDSSESGMLSRLGDLLFYTIAEGQERIPIHKFTTALKATGLQTSDPRLRDCMSEMHRVVQESSSGGLLDRDLFRKCVSSNIVLLTQAFRKKFVIPDFEEFTGHVDRIFEDVKELTGGKVAAYIPQLAKSNPDLWGVSLCTVDGQRHSVGHTKIPFCLQSCVKPLTYAISISTLGTDYVHKFVGKEPSGLRYNKLSLNEEGIPHNPMVNAGAIVVSSLIKMDCNKAEKFDFVLQYLNKMAGNEYMGFSAATFQSEKETGDRNYAIGYYLKEKKCFPKGVDMMAALDLYFQLCSVEVTCESGSVMAATLANGGICPITGESVLSAEAVRNTLSLMHSCGMYDFSGQFAFHVGLPAKSAVSGAILLVVPNVMGMMCLSPPLDKLGNSHRGTSFCQKLVSLFNFHNYDNLRHCARKLDPRREGAEIRNKTVVNLLFAAYSGDVSALRRFALSAMDMEQKDYDSRTALHVAAAEGHIEVVKFLIEACKVNPFAKDRWGNIPLDDAVQFNHLEVVKLLQDYQDSYTLSETQAEAAAEALSKENLESMV | – | – | 4 |
